Source: article PMC4395295

Experiments:
[1] = molecular target: ZEN-4 1-585mAG (C. elegans)
[2] = molecular target: VenusZ435-555 (ZEN-4 neck and coiled coil with the motor domain replaced by Venus) (C. elegans); assay: SDS-PAGE and densitometry of the purified complex; band intensities of the ZEN-4 and CYK-4 fragments, staining assumed proportional to molecular weight
Sequence of VenusZ435-555 (ZEN-4 neck and coiled coil with the motor domain replaced by Venus) (C. elegans) (main, as listed by the source): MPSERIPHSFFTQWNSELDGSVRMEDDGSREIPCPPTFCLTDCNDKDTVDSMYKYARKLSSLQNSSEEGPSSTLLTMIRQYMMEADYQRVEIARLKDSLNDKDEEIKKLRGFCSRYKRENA

CYK-4 1-120 (domain or fragment)
microtubule gliding velocity of surface-immobilised Z585mAG co-purified with C120 (180 nm/s for Z585mAG alone) [1]: 30 nm/s
stoichiometry N (C120 per ZEN-4 fragment) [2]: 0.94
